Experimental data reported in publication PMC4689063.

Target: Sam68-6H (UniProt Q07666 1-443)
Test: EMSA
Settings: protein: recombinant; tags: 6xHis (pET30c+); chain copies: 2; label: 5' biotin; two UAAA motifs predicted unpaired

Chain of Sam68-6H (Q07666 whole entry): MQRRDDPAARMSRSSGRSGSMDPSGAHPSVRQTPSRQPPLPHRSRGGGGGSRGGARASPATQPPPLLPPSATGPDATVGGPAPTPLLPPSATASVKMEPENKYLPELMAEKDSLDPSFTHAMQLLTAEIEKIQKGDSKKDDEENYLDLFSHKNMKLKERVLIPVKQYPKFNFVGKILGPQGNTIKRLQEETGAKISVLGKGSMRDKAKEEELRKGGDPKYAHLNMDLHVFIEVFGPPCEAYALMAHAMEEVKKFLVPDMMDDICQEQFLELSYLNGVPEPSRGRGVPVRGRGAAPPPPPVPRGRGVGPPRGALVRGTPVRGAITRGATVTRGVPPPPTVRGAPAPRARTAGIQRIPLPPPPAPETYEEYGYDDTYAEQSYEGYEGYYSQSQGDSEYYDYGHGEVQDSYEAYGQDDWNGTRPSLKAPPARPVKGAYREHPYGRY

B1: WT domain 4 probe (ssRNA)
RNA: AAGGGGACCGGGGCUUCUAUAAAAGCGCCCGGUUUAAAAAGCUUCUAUGUCUGAAUAGGUGACCG
Question: How did the “apparent K (half saturation)” value turn out when B1 was run?
Answer: Its value is about 3.16 µM.
